Residue numbers refer to the chain shown, from its start.
B1: GCH065-G1dh/none-Hi-Kn010G3/L0011-k0 (antibody, human IgG1, kappa)
heavy: not shown
chain: EPKSSDKTHTCPPCPAPELLGGPSVFLFPPKPKDTLMISRTPEVTCVVVDVSHEDPEVKFNWYVDGVEVHNAKTKPREEQYNSTYRVVSVLTVLHQDWLNGKEYKCKVSNKALPAPIEKTISKAKGQPREPQVCTLPPSRDELTKNQVSLWCLVKGFYPSDIAVEWESNGQPENNYKTTPPVLDSDGSFFLYSKLTVDKSRWQQGNVFSCSVMHEALHNRYTQKSLSLSP
light: DIVMTQSPLSLPVTPGEPASISCRSSQPLVHSNRNTYLHWYQQKPGQAPRLLIYKVSNRFSGVPDRFSGSGSGTDFTLKISRVEAEDVGVYYCGQGTQVPYTFGQGTKLEIKRTVAAPSVFIFPPSDEQLKSGTASVVCLLNNFYPREAKVQWKVDNALQSGNSQESVTEQDSKDSTYSLSSTLTLSKADYEKHKVYACEVTHQGLSSPVTKSFNRGEC
notes: single-arm (one Fab)
B2: GCH065-G1dh/none-Hi-Kn010G3/L0201-k0 (antibody, human IgG1, kappa)
heavy: not shown
chain: B1 chain
light: B1 light with L29P
notes: single-arm (one Fab)
B3: GCH065-G1dh/none-Hi-Kn010G3/L0262-k0 (antibody, human IgG1, kappa)
heavy: not shown
chain: B1 chain
light: B1 light with L29P, G94A
notes: single-arm (one Fab)
B4: GCH065-G1dh/none-Hi-Kn010G3/L0272-k0 (antibody, human IgG1, kappa)
heavy: not shown
chain: B1 chain
light: B1 light with N35Q
notes: single-arm (one Fab)
B5: GCH066-G1dh/none-Hi-Kn010G3/L0000-k0 (antibody, human IgG1, kappa)
heavy: not shown
chain: B1 chain
light: B1 light with P28S
notes: single-arm (one Fab)
B6: GCH073-G1dh/none-Hi-Kn010G3/L0000-k0 (antibody, human IgG1, kappa)
heavy: not shown
chain: B1 chain
light: B1 light with P28S
notes: single-arm (one Fab)
B7: GCH073-G1dh/none-Hi-Kn010G3/L0011-k0 (antibody, human IgG1, kappa)
heavy: not shown
chain: B1 chain
light: B1 light
notes: single-arm (one Fab)
B8: GCH073-G1dh/none-Hi-Kn010G3/L0201-k0 (antibody, human IgG1, kappa)
heavy: not shown
chain: B1 chain
light: B1 light with L29P
notes: single-arm (one Fab)
B9: GCH094-G1dh/none-Hi-Kn010G3/L0011-k0 (antibody, human IgG1, kappa)
heavy: not shown
chain: B1 chain
light: B1 light
notes: single-arm (one Fab)
B10: GCH094-G1dh/none-Hi-Kn010G3/L0201-k0 (antibody, human IgG1, kappa)
heavy: not shown
chain: B1 chain
light: B1 light with L29P
notes: single-arm (one Fab)
B11: GCH094-G1dh/none-Hi-Kn010G3/L0246-k0 (antibody, human IgG1, kappa)
heavy: not shown
chain: B1 chain
light: B1 light with P28S, L29P, L38I, H39Q, G94S
notes: single-arm (one Fab)
B12: GCH094-G1dh/none-Hi-Kn010G3/L0270-k0 (antibody, human IgG1, kappa)
heavy: not shown
chain: B1 chain
light: B1 light with P28S, N35Q
notes: single-arm (one Fab)
B13: GCH094-G1dh/none-Hi-Kn010G3/L0271-k0 (antibody, human IgG1, kappa)
heavy: not shown
chain: B1 chain
light: B1 light with L29P, N35Q
notes: single-arm (one Fab)
B14: GCH094-G1dh/none-Hi-Kn010G3/L0272-k0 (antibody, human IgG1, kappa)
heavy: not shown
chain: B1 chain
light: B1 light with N35Q
notes: single-arm (one Fab)
B15: GCH098-G1dh/none-Hi-Kn010G3/L0000-k0 (antibody, human IgG1, kappa)
heavy: not shown
chain: B1 chain
light: B1 light with P28S
notes: single-arm (one Fab)
B16: GCH098-G1dh/none-Hi-Kn010G3/L0011-k0 (antibody, human IgG1, kappa)
heavy: not shown
chain: B1 chain
light: B1 light
notes: single-arm (one Fab)
B17: GCH098-G1dh/none-Hi-Kn010G3/L0201-k0 (antibody, human IgG1, kappa)
heavy: not shown
chain: B1 chain
light: B1 light with L29P
notes: single-arm (one Fab)
B18: GCH099-G1dh/none-Hi-Kn010G3/L0000-k0 (antibody, human IgG1, kappa)
heavy: not shown
chain: B1 chain
light: B1 light with P28S
notes: single-arm (one Fab); printed with a small k in Hi-kn010G3
B19: GCH099-G1dh/none-Hi-Kn010G3/L0011-k0 (antibody, human IgG1, kappa)
heavy: not shown
chain: B1 chain
light: B1 light
notes: single-arm (one Fab)
B20: GCH099-G1dh/none-Hi-Kn010G3/L0201-k0 (antibody, human IgG1, kappa)
heavy: not shown
chain: B1 chain
light: B1 light with L29P
notes: single-arm (one Fab)
B21: GCH100-G1dh/none-Hi-Kn010G3/L0011-k0 (antibody, human IgG1, kappa)
heavy: not shown
chain: B1 chain
light: B1 light
notes: single-arm (one Fab)
B22: GCH100-G1dh/none-Hi-Kn010G3/L0201-k0 (antibody, human IgG1, kappa)
heavy: not shown
chain: B1 chain
light: B1 light with L29P
notes: single-arm (one Fab)
B23: H0610-G1dh/none-Hi-Kn010G3/L0002-k0 (antibody, human IgG1, kappa)
heavy: not shown
chain: B1 chain
light: B1 light with S25A, P28S
notes: single-arm (one Fab)
B24: H0610-G1dh/none-Hi-Kn010G3/L0003-k0 (antibody, human IgG1, kappa)
heavy: not shown
chain: B1 chain
light: B1 light with S25I, P28S
notes: single-arm (one Fab)
B25: H0610-G1dh/none-Hi-Kn010G3/L0006-k0 (antibody, human IgG1, kappa)
heavy: not shown
chain: B1 chain
light: B1 light with S25P, P28S
notes: single-arm (one Fab)
B26: H0610-G1dh/none-Hi-Kn010G3/L0007-k0 (antibody, human IgG1, kappa)
heavy: not shown
chain: B1 chain
light: B1 light with S25T, P28S
notes: single-arm (one Fab)
B27: H0610-G1dh/none-Hi-Kn010G3/L0008-k0 (antibody, human IgG1, kappa)
heavy: not shown
chain: B1 chain
light: B1 light with S25V, P28S
notes: single-arm (one Fab)
B28: H0610-G1dh/none-Hi-Kn010G3/L0009-k0 (antibody, human IgG1, kappa)
heavy: not shown
chain: B1 chain
light: B1 light with S26P, P28S
notes: single-arm (one Fab)
B29: H0610-G1dh/none-Hi-Kn010G3/L0011-k0 (antibody, human IgG1, kappa)
heavy: not shown
chain: B1 chain
light: B1 light
notes: single-arm (one Fab)
B30: H0610-G1dh/none-Hi-Kn010G3/L0012-k0 (antibody, human IgG1, kappa)
heavy: not shown
chain: B1 chain
light: B1 light with P28S, L29F
notes: single-arm (one Fab)
B31: H0610-G1dh/none-Hi-Kn010G3/L0013-k0 (antibody, human IgG1, kappa)
heavy: not shown
chain: B1 chain
light: B1 light with P28S, L29I
notes: single-arm (one Fab)
B32: H0610-G1dh/none-Hi-Kn010G3/L0014-k0 (antibody, human IgG1, kappa)
heavy: not shown
chain: B1 chain
light: B1 light with P28S, L29M
notes: single-arm (one Fab)
B33: H0610-G1dh/none-Hi-Kn010G3/L0015-k0 (antibody, human IgG1, kappa)
heavy: not shown
chain: B1 chain
light: B1 light with P28S, L29P
notes: single-arm (one Fab)
B34: H0610-G1dh/none-Hi-Kn010G3/L0016-k0 (antibody, human IgG1, kappa)
heavy: not shown
chain: B1 chain
light: B1 light with P28S, L29V
notes: single-arm (one Fab)
B35: H0610-G1dh/none-Hi-Kn010G3/L0032-k0 (antibody, human IgG1, kappa)
heavy: not shown
chain: B1 chain
light: B1 light with P28S, H31R
notes: single-arm (one Fab)
B36: H0610-G1dh/none-Hi-Kn010G3/L0038-k0 (antibody, human IgG1, kappa)
heavy: not shown
chain: B1 chain
light: B1 light with P28S, S32F
notes: single-arm (one Fab)
B37: H0610-G1dh/none-Hi-Kn010G3/L0039-k0 (antibody, human IgG1, kappa)
heavy: not shown
chain: B1 chain
light: B1 light with P28S, S32H
notes: single-arm (one Fab)
B38: H0610-G1dh/none-Hi-Kn010G3/L0041-k0 (antibody, human IgG1, kappa)
heavy: not shown
chain: B1 chain
light: B1 light with P28S, S32L
notes: single-arm (one Fab)
B39: H0610-G1dh/none-Hi-Kn010G3/L0042-k0 (antibody, human IgG1, kappa)
heavy: not shown
chain: B1 chain
light: B1 light with P28S, S32M
notes: single-arm (one Fab)
B40: H0610-G1dh/none-Hi-Kn010G3/L0044-k0 (antibody, human IgG1, kappa)
heavy: not shown
chain: B1 chain
light: B1 light with P28S, S32P
notes: single-arm (one Fab)
B41: H0610-G1dh/none-Hi-Kn010G3/L0045-k0 (antibody, human IgG1, kappa)
heavy: not shown
chain: B1 chain
light: B1 light with P28S, S32Q
notes: single-arm (one Fab)
B42: H0610-G1dh/none-Hi-Kn010G3/L0047-k0 (antibody, human IgG1, kappa)
heavy: not shown
chain: B1 chain
light: B1 light with P28S, S32W
notes: single-arm (one Fab)
B43: H0610-G1dh/none-Hi-Kn010G3/L0064-k0 (antibody, human IgG1, kappa)
heavy: not shown
chain: B1 chain
light: B1 light with P28S, N35F
notes: single-arm (one Fab)
B44: H0610-G1dh/none-Hi-Kn010G3/L0065-k0 (antibody, human IgG1, kappa)
heavy: not shown
chain: B1 chain
light: B1 light with P28S, N35G
notes: single-arm (one Fab)
B45: H0610-G1dh/none-Hi-Kn010G3/L0066-k0 (antibody, human IgG1, kappa)
heavy: not shown
chain: B1 chain
light: B1 light with P28S, N35H
notes: single-arm (one Fab)
B46: H0610-G1dh/none-Hi-Kn010G3/L0075-k0 (antibody, human IgG1, kappa)
heavy: not shown
chain: B1 chain
light: B1 light with P28S, N35W
notes: single-arm (one Fab)
B47: H0610-G1dh/none-Hi-Kn010G3/L0079-k0 (antibody, human IgG1, kappa)
heavy: not shown
chain: B1 chain
light: B1 light with P28S, L38I
notes: single-arm (one Fab)

The binders below were run against T1, soluble human GPC3 (human, UniProt P51654 25-563, limits assumed) (assay: SPR (Biacore), soluble human GPC3).
T1 construct: soluble human GPC3 as analyte; also called glypican 3
T1 sequence (P51654 other isoform, or with tags, fused parts or gaps limits assumed, form in doubt): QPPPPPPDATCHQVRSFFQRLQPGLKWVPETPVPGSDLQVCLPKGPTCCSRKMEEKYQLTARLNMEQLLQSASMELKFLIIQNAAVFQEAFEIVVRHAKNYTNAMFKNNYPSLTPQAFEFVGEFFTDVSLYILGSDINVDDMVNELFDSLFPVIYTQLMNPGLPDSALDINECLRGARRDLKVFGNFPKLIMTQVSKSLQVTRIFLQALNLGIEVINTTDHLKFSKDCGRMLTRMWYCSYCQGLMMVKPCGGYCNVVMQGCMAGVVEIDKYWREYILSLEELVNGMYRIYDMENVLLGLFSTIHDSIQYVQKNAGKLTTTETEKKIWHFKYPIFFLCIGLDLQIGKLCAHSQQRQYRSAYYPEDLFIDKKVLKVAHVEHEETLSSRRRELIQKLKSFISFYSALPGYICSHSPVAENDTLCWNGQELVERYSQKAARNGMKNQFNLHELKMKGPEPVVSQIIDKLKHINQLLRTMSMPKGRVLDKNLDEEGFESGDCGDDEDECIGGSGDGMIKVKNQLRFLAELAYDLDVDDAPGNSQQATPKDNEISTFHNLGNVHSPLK

Compared with B1, B2 is 11-fold lower in Kd: 0.884 nM for the first, 0.0774 nM for the second. The second binds more tightly here.

Going from B3 to B4, the Kd rises from 0.0118 nM to 0.393 nM (33-fold).

Going from B5 to B6, the Kd falls from 4.29 nM to 2 nM (2.1-fold).

First: B7
Second: B8
The Kd of the first is 26-fold higher: 0.91 nM for the first, 0.035 nM for the second.

First: B9
Second: B10
The Kd of the first is 3.3-fold higher: 3.88 nM for the first, 1.17 nM for the second. The second binds more tightly here.

Compared with B11, B12 is 870-fold higher in Kd: 0.00412 nM for the first, 3.6 nM for the second. The first binds more tightly here.

Going from B13 to B14, the Kd rises from 0.692 nM to 2.1 nM (3-fold). The first binds more tightly here.

Going from B15 to B16, the Kd falls from 1.77 nM to 0.802 nM (2.2-fold).

Compared with B17, B18 is 38-fold higher in Kd: 0.111 nM for the first, 4.24 nM for the second. The first binds more tightly here.

Going from B19 to B20, the Kd falls from 2.78 nM to 1.29 nM (2.2-fold).

First: B21
Second: B22
The Kd of the first is 2.8-fold higher: 3.81 nM for the first, 1.37 nM for the second.

B23 and B24 are within 1.5-fold of each other in Kd: 4.43 nM for the first, 4.01 nM for the second.

B25 and B26 are within 1.5-fold of each other in Kd: 3.04 nM for the first, 4.39 nM for the second.

B27 and B28 are within 1.5-fold of each other in Kd: 3.3 nM for the first, 2.99 nM for the second.

Going from B29 to B30, the Kd falls from 2.76 nM to 1.55 nM (1.8-fold). The second binds more tightly here.

First: B31
Second: B32
The Kd of the first is 1.8-fold higher: 3.35 nM for the first, 1.82 nM for the second. The second binds more tightly here.

First: B33
Second: B34
The Kd of the first is 3.4-fold lower: 1.31 nM for the first, 4.44 nM for the second.

B35 and B36 are within 1.5-fold of each other in Kd: 3.72 nM for the first, 2.75 nM for the second.

B37 and B38 are within 1.5-fold of each other in Kd: 3.41 nM for the first, 4.85 nM for the second.

B39 and B40 are within 1.5-fold of each other in Kd: 4.27 nM for the first, 4.57 nM for the second.

First: B41
Second: B42
The Kd of the first is 2.1-fold higher: 4.66 nM for the first, 2.23 nM for the second.

B43 and B44 are within 1.5-fold of each other in Kd: 3.37 nM for the first, 4.79 nM for the second.

B45 and B46 are within 1.5-fold of each other in Kd: 4.2 nM for the first, 2.85 nM for the second.

For B47, the Kd was 4.23 nM.

— patent US20210388110A1 (published 2021)
